The Kd is the free concentration of one partner at which half of the binding sites on the other are occupied at equilibrium, for simple one-to-one binding. High values mean weaker binding, low ones tighter binding.

This is an account of results in PMC2905227 (Journal of the American Chemical Society, 2010).

Holding throughout (assay): competitive inhibition of enzyme activity
One test deals with T1, [NO2Y730]-α2(Y731F) (E. coli, UniProt P00452 1-761, Y731F, 3-nitrotyrosine (NO2Y) in place of Y730).
T1 sequence (looked up): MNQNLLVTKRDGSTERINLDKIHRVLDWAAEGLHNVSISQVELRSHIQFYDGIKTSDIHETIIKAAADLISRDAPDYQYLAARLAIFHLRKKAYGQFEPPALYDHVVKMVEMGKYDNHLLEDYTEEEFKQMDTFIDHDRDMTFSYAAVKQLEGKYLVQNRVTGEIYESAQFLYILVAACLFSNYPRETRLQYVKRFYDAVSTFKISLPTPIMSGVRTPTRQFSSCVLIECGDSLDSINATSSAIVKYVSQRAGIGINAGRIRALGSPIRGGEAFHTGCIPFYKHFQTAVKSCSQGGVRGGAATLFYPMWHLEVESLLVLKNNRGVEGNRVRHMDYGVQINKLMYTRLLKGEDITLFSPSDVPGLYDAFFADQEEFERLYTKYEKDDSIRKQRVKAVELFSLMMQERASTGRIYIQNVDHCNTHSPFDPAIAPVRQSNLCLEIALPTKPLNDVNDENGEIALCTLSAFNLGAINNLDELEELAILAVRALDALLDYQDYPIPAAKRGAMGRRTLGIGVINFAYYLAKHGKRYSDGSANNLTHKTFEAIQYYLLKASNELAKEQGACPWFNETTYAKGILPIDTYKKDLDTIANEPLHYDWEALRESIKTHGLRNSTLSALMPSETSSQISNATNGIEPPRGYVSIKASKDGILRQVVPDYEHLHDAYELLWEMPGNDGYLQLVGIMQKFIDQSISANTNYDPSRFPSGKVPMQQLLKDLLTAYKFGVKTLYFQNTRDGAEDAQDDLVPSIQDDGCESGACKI

The next test deals with T2, [NO2Y731]-α2(Y730F) (E. coli, UniProt P00452 1-761, Y730F, 3-nitrotyrosine (NO2Y) in place of Y731).
T2 sequence (looked up): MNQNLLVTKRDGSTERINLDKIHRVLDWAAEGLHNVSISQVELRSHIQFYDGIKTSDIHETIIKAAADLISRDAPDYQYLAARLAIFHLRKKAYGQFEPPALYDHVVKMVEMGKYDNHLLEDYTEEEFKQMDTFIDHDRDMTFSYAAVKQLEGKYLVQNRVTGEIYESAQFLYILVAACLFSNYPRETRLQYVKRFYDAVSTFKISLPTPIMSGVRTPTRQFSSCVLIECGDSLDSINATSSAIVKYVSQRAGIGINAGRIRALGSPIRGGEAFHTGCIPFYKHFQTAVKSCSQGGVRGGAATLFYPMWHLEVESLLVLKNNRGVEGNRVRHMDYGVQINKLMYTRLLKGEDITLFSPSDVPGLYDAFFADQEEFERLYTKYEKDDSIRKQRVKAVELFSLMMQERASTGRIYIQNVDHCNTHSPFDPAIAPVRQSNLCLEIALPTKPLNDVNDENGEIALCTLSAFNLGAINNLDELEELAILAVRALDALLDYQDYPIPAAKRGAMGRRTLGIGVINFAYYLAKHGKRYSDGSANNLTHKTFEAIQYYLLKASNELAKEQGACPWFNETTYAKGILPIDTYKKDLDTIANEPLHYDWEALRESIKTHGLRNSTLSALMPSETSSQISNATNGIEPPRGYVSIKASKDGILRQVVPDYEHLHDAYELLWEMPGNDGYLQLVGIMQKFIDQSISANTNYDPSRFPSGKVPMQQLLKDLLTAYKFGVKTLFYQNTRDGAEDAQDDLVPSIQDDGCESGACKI

In another test the target is T3, [NO2Y730]-α2(Y731A) (E. coli, UniProt P00452 1-761, Y731A, 3-nitrotyrosine (NO2Y) in place of Y730).
T3 sequence (looked up): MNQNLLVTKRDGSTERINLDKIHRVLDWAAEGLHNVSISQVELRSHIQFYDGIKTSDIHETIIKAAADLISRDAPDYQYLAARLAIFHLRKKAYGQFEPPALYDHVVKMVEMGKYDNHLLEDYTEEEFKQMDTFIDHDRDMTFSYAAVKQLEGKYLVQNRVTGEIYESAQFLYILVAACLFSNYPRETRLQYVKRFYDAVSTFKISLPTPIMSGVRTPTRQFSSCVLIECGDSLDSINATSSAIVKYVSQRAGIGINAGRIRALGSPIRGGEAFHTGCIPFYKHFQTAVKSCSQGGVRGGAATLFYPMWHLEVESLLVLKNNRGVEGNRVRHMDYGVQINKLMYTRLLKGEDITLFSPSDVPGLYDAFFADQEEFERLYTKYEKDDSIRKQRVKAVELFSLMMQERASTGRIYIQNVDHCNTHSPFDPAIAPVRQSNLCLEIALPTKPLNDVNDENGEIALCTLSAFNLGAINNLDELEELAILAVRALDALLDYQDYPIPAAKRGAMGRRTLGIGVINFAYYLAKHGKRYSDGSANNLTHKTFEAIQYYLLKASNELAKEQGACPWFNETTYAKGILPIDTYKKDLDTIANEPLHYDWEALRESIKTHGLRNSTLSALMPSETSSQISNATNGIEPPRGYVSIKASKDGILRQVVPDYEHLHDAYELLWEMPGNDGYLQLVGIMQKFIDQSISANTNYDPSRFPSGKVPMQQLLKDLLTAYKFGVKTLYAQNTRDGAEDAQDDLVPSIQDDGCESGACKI

B1: wild-type E. coli ribonucleotide reductase β2 subunit (enzyme, UniProt P69924 1-376, looked up)
chain: MAYTTFSQTKNDQLKEPMFFGQPVNVARYDQQKYDIFEKLIEKQLSFFWRPEEVDVSRDRIDYQALPEHEKHIFISNLKYQTLLDSIQGRSPNVALLPLISIPELETWVETWAFSETIHSRSYTHIIRNIVNDPSVVFDDIVTNEQIQKRAEGISSYYDELIEMTSYWHLLGEGTHTVNGKTVTVSLRELKKKLYLCLMSVNALEAIRFYVSFACSFAFAERELMEGNAKIIRLIARDEALHLTGTQHMLNLLRSGADDPEMAEIAEECKQECYDLFVQAAQQEKDWADYLFRDGSMIGLNKDILCQYVEYITNIRMQAVGLDLPFQTRSNPIPWINTWLVSDNVQVAPQEVEVSSYLVGQIDSEVDTDDLSNFQL
modifications: tyrosyl radical at Y122 (1-1.2 radicals per β2), diferric cluster
Turning to B1, the Kd in test [NO2Y730]-α2(Y731F) is 1450 ± 140 nM; in test [NO2Y731]-α2(Y730F), 500 ± 40 nM; in test [NO2Y730]-α2(Y731A) it was 2710 ± 130 nM.
